From patent US20190144863 come the findings set out here.

The Kd is the free concentration of one partner at which half of the binding sites on the other are occupied at equilibrium, for simple one-to-one binding. A higher Kd goes with lower affinity.

The target of this data set is EZH2 (UniProt Q61188). The data set can be described thus: filter. Particulars: negative control RNA.
Sequence of EZH2 (Q61188 whole entry): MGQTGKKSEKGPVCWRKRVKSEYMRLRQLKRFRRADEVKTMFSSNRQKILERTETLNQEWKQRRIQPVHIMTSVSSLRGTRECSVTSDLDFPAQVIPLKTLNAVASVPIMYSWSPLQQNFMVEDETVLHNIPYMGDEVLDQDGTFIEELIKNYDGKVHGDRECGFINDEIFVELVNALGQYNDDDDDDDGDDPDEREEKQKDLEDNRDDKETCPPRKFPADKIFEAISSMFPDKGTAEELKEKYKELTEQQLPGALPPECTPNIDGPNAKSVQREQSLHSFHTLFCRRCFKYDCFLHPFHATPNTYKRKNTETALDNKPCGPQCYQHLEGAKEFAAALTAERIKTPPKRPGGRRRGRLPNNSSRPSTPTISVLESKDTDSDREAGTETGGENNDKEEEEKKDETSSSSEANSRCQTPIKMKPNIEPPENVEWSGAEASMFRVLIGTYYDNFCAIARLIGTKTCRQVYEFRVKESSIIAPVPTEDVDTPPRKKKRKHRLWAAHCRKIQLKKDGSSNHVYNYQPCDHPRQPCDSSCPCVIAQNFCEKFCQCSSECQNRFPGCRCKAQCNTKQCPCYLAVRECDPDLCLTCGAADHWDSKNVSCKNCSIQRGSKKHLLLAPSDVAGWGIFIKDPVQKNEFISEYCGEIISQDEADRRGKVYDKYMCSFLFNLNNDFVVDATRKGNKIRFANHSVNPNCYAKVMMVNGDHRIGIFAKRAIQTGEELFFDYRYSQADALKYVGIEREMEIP

Take P4P6 RNA: the Kd was > 3000 nM.
